Test results as given in patent US20200199231A1.

Molecular target: human CD20 (human) (UniProt P11836)
Experiment: flow cytometry on Daudi cells (CD20-positive, CD3-negative); PE-conjugated goat anti-human IgG F(ab')2; geomean (PE)

human CD20 (human), sequence (P11836 whole entry): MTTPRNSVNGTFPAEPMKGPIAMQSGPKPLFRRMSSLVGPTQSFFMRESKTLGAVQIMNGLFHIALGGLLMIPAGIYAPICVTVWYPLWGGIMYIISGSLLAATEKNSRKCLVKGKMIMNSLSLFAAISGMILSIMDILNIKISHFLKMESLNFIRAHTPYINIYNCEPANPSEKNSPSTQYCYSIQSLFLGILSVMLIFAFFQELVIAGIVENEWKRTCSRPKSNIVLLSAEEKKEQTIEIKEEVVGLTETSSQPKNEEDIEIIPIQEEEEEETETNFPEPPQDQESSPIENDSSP

EC50 (read off the curve) [µg/mL]	Substance
0.6	IgG1-GA101 (antibody)
0.7	IgG1-RTX (antibody)
